The values that follow come from article PMC4107134.

Assay [1] deals with integrin αIIbΔ996β3 (αIIb tail truncated after GFFKR) (UniProt P05106). In words: pull-down.
Assay [2] deals with integrin αIIbβ3, wild type (UniProt P05106). In words: pull-down.

A word on the Kd: it is the concentration at which binding is half-saturated. Higher therefore signals a looser complex. As to “talin head domain (THD, talin residues 1-433), purified (from UniProt P26039 1-433) (domain or fragment)”, the Kd in assay [1] was 206 nM; in assay [2], 214 nM.
